The results in this text go back to article PMC4501333, “ATF4 licenses C/EBPβ activity in human mesenchymal stem cells primed for adipogenesis”.

The target in data set [1] is ATF4 (UniProt P18848 1-351). As to the kind of experiment: EMSA; ATF4 alone, up to 90 uM; probe 0.25 nM; EMSA: 10 mM HEPES pH 7.8, 50 mM NaCl, 10 mM MgCl2, 5 mM DTT, protease inhibitor, 0.25 mg/ml BSA, 5 ng/ul poly dIdC, 5% glycerol, ~5 fmol probe in 20 ul; native. Particulars: protein: recombinant; tags: N-terminal His (pET30a); chain copies: 2; label: 32P.
For data set [2], the target named is C/EBPβ (UniProt P17676 1-345). The data set can be described thus: EMSA; C/EBPβ 100-900 nM; preferred site; probe 0.25 nM; EMSA: 10 mM HEPES pH 7.8, 50 mM NaCl, 10 mM MgCl2, 5 mM DTT, protease inhibitor, 0.25 mg/ml BSA, 5 ng/ul poly dIdC, 5% glycerol, ~5 fmol probe in 20 ul; native. Particulars: protein: recombinant; tags: N-terminal His (pET30a); chain copies: 2; label: 32P. In general terms: Mobility shift assays separate free from complexed probe on a gel.

In data set [3] the target is C/EBPβ (heterodimer subunit);ATF4 (heterodimer subunit) (human?;human?, UniProt P17676;P18848 1-345;1-351, |). As to the kind of experiment: EMSA; ATF4 added to C/EBPβ; higher affinity than C/EBPβ homodimer; antibodies inhibit heterodimer binding; EMSA: 10 mM HEPES pH 7.8, 50 mM NaCl, 10 mM MgCl2, 5 mM DTT, protease inhibitor, 0.25 mg/ml BSA, 5 ng/ul poly dIdC, 5% glycerol, ~5 fmol probe in 20 ul; native. The settings on record: protein: recombinant;recombinant; tags: N-terminal His (pET30a);N-terminal His (pET30a); copies: 1;1; label: 32P.
Sequence of C/EBPβ (heterodimer subunit);ATF4 (heterodimer subunit) (P17676 whole entry, chain 1 of 2): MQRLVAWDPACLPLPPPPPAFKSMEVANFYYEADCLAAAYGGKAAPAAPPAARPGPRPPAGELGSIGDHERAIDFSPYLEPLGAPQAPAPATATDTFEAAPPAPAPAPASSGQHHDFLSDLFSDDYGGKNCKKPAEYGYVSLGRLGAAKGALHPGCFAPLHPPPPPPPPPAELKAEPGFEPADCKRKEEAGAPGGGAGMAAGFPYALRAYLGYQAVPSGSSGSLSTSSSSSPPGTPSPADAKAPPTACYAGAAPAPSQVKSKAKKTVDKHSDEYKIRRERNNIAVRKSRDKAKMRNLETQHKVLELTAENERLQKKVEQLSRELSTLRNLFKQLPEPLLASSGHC
Sequence of C/EBPβ (heterodimer subunit);ATF4 (heterodimer subunit) (P18848 whole entry, chain 2 of 2): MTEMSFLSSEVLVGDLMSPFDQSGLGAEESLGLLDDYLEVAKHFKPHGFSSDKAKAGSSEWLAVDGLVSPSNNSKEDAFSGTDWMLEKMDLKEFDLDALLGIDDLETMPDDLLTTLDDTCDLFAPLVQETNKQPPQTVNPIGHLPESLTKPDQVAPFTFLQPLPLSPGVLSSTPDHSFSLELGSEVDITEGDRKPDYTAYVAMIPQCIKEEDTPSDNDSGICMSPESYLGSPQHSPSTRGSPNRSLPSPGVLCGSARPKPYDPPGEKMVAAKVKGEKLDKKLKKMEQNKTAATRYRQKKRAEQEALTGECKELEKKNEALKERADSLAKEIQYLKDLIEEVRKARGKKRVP

Sequence of ATF4 (P18848 whole entry): as the sequence (P18848 whole entry, chain 2 of 2) above
Sequence of C/EBPβ (P17676 whole entry): as the sequence (P17676 whole entry, chain 1 of 2) above

B1: palindromic C/EBP EMSA probe (dsDNA)
DNA 1: GAGCAAATATTGCGCAATATAAGTC
DNA 2: GGACTTATATTGCGCAATATTTGCT
In the case of B1, the binding result in data set [1] was “no binding”; in data set [2], “binds”.

B2: hybrid (ATF4 motif) EMSA probe (dsDNA)
DNA 1: GAGCAAATCTGATGCAATATAAGTC
DNA 2: GGACTTATATTGCATCAGATTTGCT
For B2, the binding result in data set [1] is reported as “no binding”; in data set [3], “binds”.
